Source: US20050245438A1 (SALK INSTITUTE FOR BIOLOGICAL STUDIES, published 2005)
Numbered stars: 1 amine (or outer) side, 2 acyl side, 3 side chain; on linkers, the order of the positions; unused ones are H or OH. Bridge positions count the residues as written; N and C are the ends. Square brackets hold non-standard residues; d marks the D form. Ends that are not written are not given here. * marks the point of attachment. (2S,3R)βMe2Nal = L-threo-(2S,3R)-β-methyl-2-naphthylalanine, (2S,3R)-2-amino-3-(naphthalen-2-yl)butanoic acid, C[C@H](c1ccc2ccccc2c1)[C@H](N[*:1])C(=O)[*:2]; threo‑(2S,3R)CβMe‑2Nal = threo-(2S,3R)-β-methyl-2-naphthylalanine (L-threo), C[C@H](c1ccc2ccccc2c1)[C@H](N[*:1])C(=O)[*:2]; d2Nal(3S-Me) = C[C@@H](c1ccc2ccccc2c1)[C@@H](N)C(=O)O; Phe(4-CH2NH2) = NCc1ccc(C[C@H](N)C(=O)O)cc1; Tyr(127I) = tyrosine iodinated with ^127I; Phe(4-NH2) = Nc1ccc(C[C@H](N)C(=O)O)cc1; 2Nal = N[C@@H](Cc1ccc2ccccc2c1)C(=O)O; Carbamoyl = NC(=O)*

B1: (cyclo)H-Cys-Phe-4Aph-D-Trp-Lys-Thr-Phe-Cys-OH (peptide)
peptide: H-CF[Phe(4-NH2)][dW]KTFC-OH
modifications: disulfide 1-8
notes: synthetic cyclic octapeptide; also called Peptide No. 2
B2: (cyclo)H-Cys-Phe-Tyr-threo-(2R,3S)C^βMe-2Nal-Lys-Thr-Phe-Cys-OH (peptide)
peptide: H-CFY[d2Nal(3S-Me)]KTFC-OH
modifications: disulfide 1-8
SMILES: C[C@@H](O)[C@@H]1NC(=O)[C@H](CCCCN)NC(=O)[C@@H]([C@@H](C)c2ccc3ccccc3c2)NC(=O)[C@H](Cc2ccc(O)cc2)NC(=O)[C@H](Cc2ccccc2)NC(=O)[C@@H](N)CSSC[C@@H](C(=O)O)NC(=O)[C@H](Cc2ccccc2)NC1=O
notes: also called Peptide No. 17
B3: (cyclo)Cbm-Cys-Phe-4Aph-Trp-Lys-Thr-Phe-Cys-OH (peptide)
peptide: Carbamoyl-CF[Phe(4-NH2)]WKTFC-OH
modifications: disulfide 1-8
notes: synthetic cyclic octapeptide; also called Peptide No. 3
B4: (cyclo)H-Cys-Phe-4Aph-2Nal-Lys-Thr-Phe-Cys-OH (peptide)
peptide: H-CF[Phe(4-NH2)][2Nal]KTFC-OH
modifications: disulfide 1-8
SMILES: C[C@@H](O)[C@@H]1NC(=O)[C@H](CCCCN)NC(=O)[C@H](Cc2ccc3ccccc3c2)NC(=O)[C@H](Cc2ccc(N)cc2)NC(=O)[C@H](Cc2ccccc2)NC(=O)[C@@H](N)CSSC[C@@H](C(=O)O)NC(=O)[C@H](Cc2ccccc2)NC1=O
notes: synthetic cyclic octapeptide; also called Peptide 5; Peptide No. 5
B5: (cyclo)H-Tyr-Cys-Phe-Ala-D-Trp-Lys-Thr-Phe-Cys-OH (peptide)
peptide: H-YCFA[dW]KTFC-OH
modifications: disulfide 2-9
notes: synthetic cyclic nonapeptide; also called Peptide No. 14
B6: (cyclo)H-Tyr-Cys-Phe-4 Amp-Trp-Lys-Thr-Phe-Cys-OH (peptide)
peptide: H-YCF[Phe(4-CH2NH2)]WKTFC-OH
modifications: disulfide 2-9
notes: here position 7 is 4Amp; also called Peptide 15; Peptide No. 15
B7: des-AA^1,2,4,5,12,13[4Aph^7]-SRIF, (cyclo)H-Cys-Phe-4Aph-Trp-Lys-Thr-Phe-Cys-OH (peptide)
peptide: H-CF[Phe(4-NH2)]WKTFC-OH
modifications: disulfide 1-8
notes: synthetic cyclic octapeptide, free N-terminus and free acid C-terminus; also called Peptide No. 1
B8: (cyclo)Cbm-Cys-Phe-4Aph-Trp-Lys-Thr-Tyr-Cys-OH (peptide)
peptide: Carbamoyl-CF[Phe(4-NH2)]WKTYC-OH
modifications: disulfide 1-8
notes: synthetic cyclic octapeptide; also called Peptide No. 10
B9: (cyclo)Cbm-Cys-Phe-4Aph-D-Trp-Lys-Thr-Tyr-Cys-OH (peptide)
peptide: Carbamoyl-CF[Phe(4-NH2)][dW]KTYC-OH
modifications: disulfide 1-8
notes: synthetic cyclic octapeptide; also called Peptide No. 10A
B10: (cyclo)H-Cys-Phe-4Aph-Trp-Lys-Thr-Tyr-Cys-OH (peptide)
peptide: H-CF[Phe(4-NH2)]WKTYC-OH
modifications: disulfide 1-8
notes: synthetic cyclic octapeptide; also called Peptide 9; Peptide No. 9
B11: (cyclo)Cbm-Tyr-Cys-Phe-Amp-Trp-Lys-Thr-Phe-Cys-OH (peptide)
peptide: Carbamoyl-YCF[Phe(4-CH2NH2)]WKTFC-OH
modifications: disulfide 2-9
notes: synthetic cyclic nonapeptide; also called Peptide No. 15A
B12: (cyclo)H-Cys-Phe-Tyr-threo-(2S,3R)C^βMe-2Nal-Lys-Thr-Phe-Cys-OH (peptide)
peptide: H-CFY[threo‑(2S,3R)CβMe‑2Nal]KTFC-OH
modifications: disulfide 1-8
SMILES: C[C@H](c1ccc2ccccc2c1)[C@@H]1NC(=O)[C@H](Cc2ccc(O)cc2)NC(=O)[C@H](Cc2ccccc2)NC(=O)[C@@H](N)CSSC[C@@H](C(=O)O)NC(=O)[C@H](Cc2ccccc2)NC(=O)[C@H]([C@@H](C)O)NC(=O)[C@H](CCCCN)NC1=O
notes: later-eluting isomer, determined to incorporate the L-threo-β-Me-2Nal residue; also called Peptide No. 17A; 17a
B13: (cyclo)H-Tyr-Cys-Phe-4Aph-D-Trp-Lys-Thr-Phe-Cys-OH (peptide)
peptide: H-YCF[Phe(4-NH2)][dW]KTFC-OH
modifications: disulfide 2-9
notes: synthetic cyclic nonapeptide; also called Peptide No. 7
B14: (cyclo)H-Cys-Phe-Ala-D-Trp-Lys-Thr-Phe-Cys-OH (peptide)
peptide: H-CFA[dW]KTFC-OH
modifications: disulfide 1-8
SMILES: C[C@@H]1NC(=O)[C@H](Cc2ccccc2)NC(=O)[C@@H](N)CSSC[C@@H](C(=O)O)NC(=O)[C@H](Cc2ccccc2)NC(=O)[C@H]([C@@H](C)O)NC(=O)[C@H](CCCCN)NC(=O)[C@@H](Cc2c[nH]c3ccccc23)NC1=O
notes: synthetic cyclic octapeptide; also called Peptide 11; Peptide No. 11
B15: (cyclo)Cys-Phe-Ala-D-Trp-Lys-Thr-Ala-Cys-OH (peptide)
peptide: CFA[dW]KTAC-OH
modifications: disulfide 1-8
notes: synthetic cyclic octapeptide; also called Peptide No. 12B
B16: (cyclo)H-Cys-Phe-Ala-Trp-Lys-Thr-Ala-Cys-OH (peptide)
peptide: H-CFAWKTAC-OH
modifications: disulfide 1-8
notes: synthetic cyclic octapeptide; also called Peptide 12A; Peptide No. 12A
B17: des-AA^1,2,4,5,12,13-[Ala^7]SRIF, (cyclo)H-Cys-Phe-Ala-Trp-Lys-Thr-Phe-Cys-OH (peptide)
peptide: H-CFAWKTFC-OH
modifications: disulfide 1-8
SMILES: C[C@@H]1NC(=O)[C@H](Cc2ccccc2)NC(=O)[C@@H](N)CSSC[C@@H](C(=O)O)NC(=O)[C@H](Cc2ccccc2)NC(=O)[C@H]([C@@H](C)O)NC(=O)[C@H](CCCCN)NC(=O)[C@H](Cc2c[nH]c3ccccc23)NC1=O
notes: synthetic cyclic octapeptide; also called Peptide No. 12
B18: (cyclo)Cbm-Tyr-Cys-Phe-4Aph-Trp-Lys-Thr-Phe-Cys-OH (peptide)
peptide: Carbamoyl-YCF[Phe(4-NH2)]WKTFC-OH
modifications: disulfide 2-9
notes: synthetic cyclic nonapeptide; also called Peptide No. 8
B19: (cyclo)Cbm-Cys-Phe-4Aph-D-Trp-Lys-Thr-Phe-Cys-OH (peptide)
peptide: Carbamoyl-CF[Phe(4-NH2)][dW]KTFC-OH
modifications: disulfide 1-8
SMILES: C[C@@H](O)[C@@H]1NC(=O)[C@H](CCCCN)NC(=O)[C@@H](Cc2c[nH]c3ccccc23)NC(=O)[C@H](Cc2ccc(N)cc2)NC(=O)[C@H](Cc2ccccc2)NC(=O)[C@@H](NC(N)=O)CSSC[C@@H](C(=O)O)NC(=O)[C@H](Cc2ccccc2)NC1=O
notes: synthetic cyclic octapeptide; also called Peptide No. 4
B20: (cyclo)Cbm-Tyr-Cys-Phe-Ala-Trp-Lys-Thr-Phe-Cys-OH (peptide)
peptide: Carbamoyl-YCFAWKTFC-OH
modifications: disulfide 2-9
notes: synthetic cyclic nonapeptide; also called Peptide No. 13B
B21: Peptide No. 13 iodinated with ^127I (peptide)
peptide: [Tyr(127I)]CFAWKTFC
modifications: disulfide 2-9
notes: also called Peptide No. 13A; the I-Tyr^2 analog
B22: (cyclo)H-Tyr-Cys-Phe-4Aph-Trp-Lys-Thr-Phe-Cys-OH (peptide)
peptide: H-YCF[Phe(4-NH2)]WKTFC-OH
modifications: disulfide 2-9
notes: synthetic cyclic nonapeptide; also called Peptide No. 6
B23: (cyclo)H-Tyr-Cys-Phe-Ala-Trp-Lys-Thr-Phe-Cys-OH (peptide)
peptide: H-YCFAWKTFC-OH
modifications: disulfide 2-9
notes: synthetic cyclic nonapeptide; also called Peptide No. 13
B24: (cyclo)H-D-Cys-Phe-Tyr-threo-(2S,3R)C^βMe-2Nal-Lys-Thr-Phe-Cys-OH (peptide)
peptide: H-[dC]FY[(2S,3R)βMe2Nal]KTFC-OH
modifications: disulfide 1-8
SMILES: C[C@H](c1ccc2ccccc2c1)[C@@H]1NC(=O)[C@H](Cc2ccc(O)cc2)NC(=O)[C@H](Cc2ccccc2)NC(=O)[C@H](N)CSSC[C@@H](C(=O)O)NC(=O)[C@H](Cc2ccccc2)NC(=O)[C@H]([C@@H](C)O)NC(=O)[C@H](CCCCN)NC1=O
notes: also called Peptide No. 16A; Peptide 16A

Key:
Assay in all cases: radioligand displacement (125I-[Leu8,D-Trp22,Tyr25]SRIF-28), membrane pellet sections
[1] = target: T1, cloned human SRIF receptor SSTR1 (human, UniProt P30872 1-391)
T1 construct: whole, on cells; also called hSSTR1
Procedure: (§1) Cells are washed twice with and scraped into ice-cold 0.05 M Tris-HCl (pH 7.4), collected by centrifugation, and homogenized using a rotor/stator/system in the same buffer. After centrifugation at 120 g for 5 min at 4° C., the supernatant is collected and centrifuged again at 48,000 g for 30 min at 4° C. The resulting pellet is resuspended in ice-cold Tris buffer, transferred into a microfuge tube, and centrifuged at 20,000 g for 15 min at 4° C. After withdrawal of the supernatant, the membrane pellet is stored at −80° C.
(§2) Receptor autoradiography is performed on 20 μm thick cryostat sections of the membrane pellets, mounted on microscope slides, and then stored at −20° C. […] Increasing concentrations of the unlabeled peptide are used ranging from 0.1-1000 nM. Unlabeled somatostatin-28 is run in parallel using the same increasing concentrations, as a control. IC₅₀ values are calculated after quantification of the data using a computer-assisted image processing system as known in this art.

[2] = target: T2, cloned human SRIF receptor SSTR2 (human, UniProt P30874 1-369)
T2 construct: whole, on cells; assayed as cryostat sections of membrane pellets of the transfected cells; also called hSSTR2
Procedure: as §1, §2

[3] = target: T3, cloned human SRIF receptor SSTR3 (human, UniProt P32745 1-418)
T3 construct: whole, on cells; assayed as cryostat sections of membrane pellets of the transfected cells; also called hSSTR3
Procedure: as §1, §2

[4] = target: T4, cloned human SRIF receptor SSTR4 (human, UniProt P31391 1-388)
T4 construct: whole, on cells; assayed as cryostat sections of membrane pellets of the transfected cells; also called hSSTR4
Procedure: as §1, §2

[5] = target: T5, cloned human SRIF receptor SSTR5 (human, UniProt P35346 1-364)
T5 construct: whole, on cells; assayed as cryostat sections of membrane pellets of the transfected cells; also called hSSTR5
Procedure: as §1, §2

T1 sequence (P30872 whole entry): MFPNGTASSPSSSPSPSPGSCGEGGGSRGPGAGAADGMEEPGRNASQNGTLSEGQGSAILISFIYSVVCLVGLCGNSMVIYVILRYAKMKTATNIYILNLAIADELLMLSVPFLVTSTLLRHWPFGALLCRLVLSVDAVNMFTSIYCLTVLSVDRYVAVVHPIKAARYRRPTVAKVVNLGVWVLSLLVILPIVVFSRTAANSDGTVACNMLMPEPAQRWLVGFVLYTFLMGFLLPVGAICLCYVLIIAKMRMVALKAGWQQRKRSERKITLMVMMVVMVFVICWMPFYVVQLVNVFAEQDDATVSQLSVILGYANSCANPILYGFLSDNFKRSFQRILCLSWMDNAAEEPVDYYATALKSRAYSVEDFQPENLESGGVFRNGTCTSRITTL
T3 sequence (P32745 whole entry): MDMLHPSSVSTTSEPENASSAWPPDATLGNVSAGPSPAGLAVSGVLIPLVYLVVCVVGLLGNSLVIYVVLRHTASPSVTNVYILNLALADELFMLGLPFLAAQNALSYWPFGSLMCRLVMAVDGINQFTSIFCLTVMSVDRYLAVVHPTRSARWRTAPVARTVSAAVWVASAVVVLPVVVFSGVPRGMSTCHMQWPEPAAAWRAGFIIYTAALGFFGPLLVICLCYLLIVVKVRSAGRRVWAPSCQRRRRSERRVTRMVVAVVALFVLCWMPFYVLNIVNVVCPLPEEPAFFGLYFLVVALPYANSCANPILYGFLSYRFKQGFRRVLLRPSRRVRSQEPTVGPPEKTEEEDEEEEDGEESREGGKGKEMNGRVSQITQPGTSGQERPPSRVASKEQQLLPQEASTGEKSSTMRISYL
T5 sequence (P35346 whole entry): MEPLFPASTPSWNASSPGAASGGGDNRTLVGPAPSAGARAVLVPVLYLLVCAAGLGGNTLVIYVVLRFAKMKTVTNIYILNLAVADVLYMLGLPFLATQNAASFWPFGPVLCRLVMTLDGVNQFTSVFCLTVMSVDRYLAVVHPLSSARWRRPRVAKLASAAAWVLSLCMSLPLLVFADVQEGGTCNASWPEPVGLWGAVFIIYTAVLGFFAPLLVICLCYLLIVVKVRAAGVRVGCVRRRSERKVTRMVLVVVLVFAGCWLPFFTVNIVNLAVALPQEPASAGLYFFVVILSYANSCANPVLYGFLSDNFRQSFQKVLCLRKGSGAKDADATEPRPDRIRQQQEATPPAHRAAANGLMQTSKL
T2 sequence (P30874 whole entry): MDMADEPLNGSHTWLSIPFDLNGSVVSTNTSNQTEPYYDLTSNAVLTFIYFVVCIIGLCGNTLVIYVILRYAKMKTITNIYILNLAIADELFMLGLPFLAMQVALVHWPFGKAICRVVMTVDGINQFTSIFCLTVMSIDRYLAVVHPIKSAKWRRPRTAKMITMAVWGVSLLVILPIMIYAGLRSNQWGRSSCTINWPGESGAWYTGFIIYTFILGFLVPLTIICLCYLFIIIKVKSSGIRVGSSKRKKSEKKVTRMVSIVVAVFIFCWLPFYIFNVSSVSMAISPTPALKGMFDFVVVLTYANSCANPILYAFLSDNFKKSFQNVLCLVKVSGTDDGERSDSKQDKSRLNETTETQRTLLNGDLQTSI
T4 sequence (P31391 whole entry): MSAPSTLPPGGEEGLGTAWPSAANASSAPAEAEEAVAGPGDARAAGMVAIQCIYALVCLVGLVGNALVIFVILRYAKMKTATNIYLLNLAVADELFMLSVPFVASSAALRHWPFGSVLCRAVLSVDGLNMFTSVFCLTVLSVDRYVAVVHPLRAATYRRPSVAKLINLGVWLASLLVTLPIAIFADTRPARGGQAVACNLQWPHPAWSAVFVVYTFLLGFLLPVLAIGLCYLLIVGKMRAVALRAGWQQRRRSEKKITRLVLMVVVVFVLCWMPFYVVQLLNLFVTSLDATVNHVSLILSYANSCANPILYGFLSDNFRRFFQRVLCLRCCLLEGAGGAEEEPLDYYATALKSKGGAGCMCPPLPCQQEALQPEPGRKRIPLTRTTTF

| Binder | IC50 [1] | IC50 [2] | IC50 [3] | IC50 [4] | IC50 [5] |
| --- | --- | --- | --- | --- | --- |
| B1 | 0.45 µM | 0.071 µM | 0.271 µM | 0.00088 µM | 0.03 µM |
| B2 | 0.41 µM | 0.03 µM | 0.018 µM | 0.0023 µM | 0.018 µM |
| B3 | 0.65 µM | – | 0.78 µM | 0.00146 µM | – |
| H-[dC]FY[d2Nal(3S-Me)]KTFC-OH (disulfide 1-8, also called Peptide No. 16) [(cyclo)H-D-Cys-Phe-Tyr-threo-(2R,3S)C^βMe-2Nal-Lys-Thr-Phe-Cys-OH] | 0.545 µM | 0.012 µM | 0.014 µM | 0.00055 µM | 0.027 µM |
| B4 | ~1.1 µM | – | 0.63 µM | 0.0029 µM | 0.61 µM |
| B5 | 0.33 µM | 0.057 µM | 0.347 µM | 0.0011 µM | – |
| B6 | – | 0.259 µM | 0.326 µM | 0.0024 µM | – |
| B7 | 0.213 µM | 0.347 µM | – | 0.0012 µM | – |
| B8 | 0.757 µM | – | – | 0.003 µM | 0.557 µM |
| B9 | – | 0.227 µM | – | 0.0043 µM | 0.11 µM |
| B10 | 0.327 µM | 0.17 µM | – | 0.0011 µM | 0.24 µM |
| B11 | – | 0.118 µM | 0.197 µM | 0.0032 µM | – |
| B12 | – | 0.194 µM | 0.825 µM | 0.0028 µM | 0.36 µM |
| B13 | 0.517 µM | 0.056 µM | 0.263 µM | 0.0012 µM | – |
| B14 | – | 0.183 µM | 0.897 µM | 0.00098 µM | 0.199 µM |
| B15 | – | – | – | 0.0095 µM | – |
| B16 | – | – | – | 0.0035 µM | – |
| B17 | – | 0.807 µM | 0.75 µM | 0.00084 µM | 0.633 µM |
| B18 | 0.347 µM | 0.55 µM | 0.21 µM | 0.0012 µM | – |
| B19 | 0.84 µM | 0.12 µM | 0.65 µM | 0.0011 µM | 0.103 µM |
| B20 | – | 0.7 µM | 0.98 µM | 0.00236 µM | – |
| B21 | – | – | 1.02 µM | 0.0035 µM | – |
| B22 | 0.27 µM | 0.26 µM | 0.135 µM | 0.0019 µM | – |
| B23 | – | 0.622 µM | 0.621 µM | 0.00198 µM | – |
| B24 | – | 0.339 µM | 0.664 µM | 0.0035 µM | 0.668 µM |
